From patent publication US8092794B2, “Pharmaceutical compositions comprising SODs and prolamine based peptide fragments” (Isocell Pharma S.A., priority 2006, dated 2012)

Tests used:
[1] = test system: foot oedema induced by carrageenan or adriamycin; conditions: cited from earlier work; for anti-inflammatory activity in rats: studies in rats
HT-29 cell line = experiment: HT-29 cell proliferation (cell count, GUAVA PC Viacount); type: cell-based, human; conditions: for toxic effect on HT-29 proliferation curves: 10 units, sampled over 72 hours; for dose that does not modify growth of the HT-29 cell line: dose range 0 to 50 NBT units
Procedure: The human colon carcinoma cell line HT-29 (ATCC HTB-38) is grown in 10% foetal bovine serum (FBS) in Dulbecco's modified Eagle's medium (D-MEM) supplemented with GlutaMAX-1, 4.5 g/L D-Glucose, sodium pyruvate and 100 unit/ml of penicillin/streptomycin. For each experiment (n=4) approximately 2×10^4 cells/well were incubated for 24 hours at 37° C. in 5% CO2 atmosphere. Prior to any experiment, existing culture medium was replaced by a fresh one.
After the incubation period, cell monolayers were detached with a PBS solution containing 0.05% trypsin and 0.5 mM EDTA, washed in calcium-free and magnesium-free phosphate-buffered saline solution (PBS) and collected by centrifugation. Cells were then counted in a hemocytometer by using the GUAVA PC Viacount Flex Kit and reported in cells/ml to estimate cellular proliferation.
In the current experiment, cultures are periodically sampled over a 72 hour period to assess the proliferation rate and the viability of HT-29 cells after exposure or not to various components, (a) 10 μM of gliadin peptide 982 (Triticum vulgare, QQPYPQPF, SEQ. ID No. 01) representing at least 100 times less than the concentration previously related to induce a significant enterocyte agglutination (De Vicenzi. M et al. 1997 Toxicology, vol 120 p 207) or enterocyte apoptosis (Giovannini et al. 2000, Toxicology, vol 145 p 63).
For recombinant protein dose-response experiments, HT-29 cells were incubated with increasing concentrations of recombinant SOD or Gli-SOD (0 to 50 NBT units) for a further 48 hours.
Cultures were periodically sampled over 72 hours to assess the proliferation rate and the viability of HT-29 cells after exposure or not to various components, (a) 10 units of recombinant SOD or (b) 10 units of recombinant SOD associated with 10 μM of peptide 982 or finally (c) 10 units of recombinant Gli-SOD (SOD physically linked to gliadin peptide 982).

[2] = NBT photoreduction on NATIVE-PAGE electrophoresis (anti-radical / antioxidant activity of SODs); type: biochemical; conditions: currently used bacterial host strains, rare codons
Procedure: The expression products of the first variants for each kind of constructions were used to validate the anti-radical activity of the various biosynthetic SODs obtained. These activities were verified by the reduction of NBT on native PAGE.
The melon pseudo cytosolic Cu—ZnSOD and the human or tomato cytosolic Cu—ZnSOD as well as their equivalents bearing the two different gliadin peptides are analysed for their antiradical activities. These activities are verified according to the NBT photoreduction on NATIVE-PAGE electrophoresis (Beauchamps and Fridovitch, 1971).
The Cucumis melo recombinant SOD as well as its equivalents bearing the gliadin peptide (Gli-SOD) were produced and purified according to a multiple step denaturation/renaturation protocol. […] The potentiality of both recombinant proteins (Cucumis melo SOD and Gli-SOD) to reduce NBT on NATIVE-PAGE electrophoresis (NBT photoreduction, Beauchamps and Fridovitch, 1971) was evaluated and compared with that of the natural Cucumis melo extract.
The migration profile and the NBT reduction obtained on Native-PAGE electrophoresis corroborate the correct and efficient refolding of both recombinant proteins, SOD or Gli-SOD (4 000-10 000 UNBT/mg protein) which is a mandatory event to display their antioxidant activity.

HT-29 cells [3] = experiment: Basal apoptosis of HT-29 cells, annexin V test (GUAVA Nexin Kit); type: cell-based, human; conditions: 10 units, 24 hours; for rate of basal apoptosis (annexin V positive cells): basal 20% (20.5)
Procedure: (§1) Apoptosis was analyzed in HT-29 cell line using the GUAVA Nexin Kit which discriminates between apoptotic and non apoptotic cells. This method utilizes annexin V Phycoerythrin to detect phopshatidylserine (PS) (Martin et al. 1995, J Exp Med vol 182 p 1545) on the external membrane of apoptotic cells.
(§2) After 24 hours, cell monolayers are detached with a PBS solution containing trypsin 0.05% and EDTA 0.5 mM, washed in calcium-free and magnesium-free phosphate-buffered saline solution (PBS) and apoptotic cell staining is performed and analysed with a GUAVA PCA system.
(§3) For the basal apoptotic inhibition (part A), the culture medium was replaced with fresh culture medium containing or absent 10 units of both recombinant SODs (NBT units). For the Orexin induced-apoptotic inhibition (part B), the culture medium was replaced with fresh culture medium containing 1 μM of orexin and/or 50 units of each recombinant SOD (NBT units). Results are expressed as the percentage of apoptotic annexin V-PE positive cells and are the means of four points.

HT-29 cells [4] = experiment: Orexin-induced apoptosis of HT-29 cells, annexin V test; type: cell-based, human; conditions: 50 units + 1 μM orexin; for rate of orexin-induced apoptosis: orexin alone 40%
Procedure: as §1, §2, §3
In a second experiment, the potent anti-apoptotic effect of the recombinant SOD or Gli-SOD was confirmed when apoptosis was induced via orexin supplementation to the HT-29 cells culture medium. In this case, the rate of HT-29 cell going into apoptosis may be enhanced from 20% evaluated for the basal level to 40% by addition of 1 μM of Orexin in the culture medium.

HT-29 cells [5] = experiment: Xanthine/xanthine oxidase (X/XO)-induced apoptosis of HT-29 cells, annexin V test; type: cell-based, human; conditions: 50 units, 10mU of X/XO complex
Procedure: as §1, §2
In this third experiment, tests of the potent anti-apoptotic effect of the recombinant SOD or Gli-SOD according to the invention on the possible Fas/FasL pathway via Xanthine/xanthine oxidase induction in the HT-29 cells culture medium were carried out.
In this case, the rate of HT-29 cell going into apoptosis may be enhanced from 20% evaluated for the basal level to 30% by addition of 10mU of X/XO complex in the culture medium. Addition of 50 units of recombinant melon SOD or again 50 units of recombinant Gli-SOD to the culture medium, prevented the X/XO-induced apoptotic pathway in the HT-29 cells respectively by 71% and 86%.

HT-29 cells [6] = experiment: Binding of SOD or Gli-SOD to HT-29 cells, FITC immunohistochemistry with EP-1669; type: cell-based, human; conditions: 50 units, 24 hours
Procedure: For each experiment (n=4), approximately 15×10^3 cells/lamella layer were incubated for 24 hours at 37° C. in 5% CO2 atmosphere. Prior to any experiment, existing culture medium was replaced by a fresh one.
The cell monolayer was then incubated in a fresh medium with or without 50 units of SOD or Gli-SOD for a further 24 hours, washed in calcium-free and magnesium-free phosphate-buffered saline solution (PBS) and then analyzed by immunohistochemistry. Binding of Gli-SOD to HT-29 cells was analyzed using the EP-1669 as a first antibody (rabbit IgG anti-SOD, dilution 1/2000°) for 30 minutes followed by a second FITC-coupled antibody for further 30 minutes (goat anti-rabbit antibody, dilution 1/100). This method was chosen rather than flow cytometry because the latter technique requires that cells be harvested by trypsin treatment and collected prior to analysis, and such treatment would likely have negatively impacted the interaction between the Gli-SOD molecules and cell surfaces.

bovine CuZn-SODs: bovine CuZn superoxide dismutase
anti-inflammatory activity after oral administration ([1]; administered orally, using liposomes or ceramides, rat leg oedema induced by carrageenan): reduction of rat leg oedema induced by carrageenan
anti-inflammatory activity in rats [1]: such an anti-inflammatory activity

homologous rat CuZn-SOD: rat CuZn superoxide dismutase
anti-inflammatory activity in rats [1]: no anti-inflammatory activity

QQPYPQPQPF (Triticum vulgare) [peptide 982, 10 amino acids peptide of A-gliadin, Triticum vulgare]
effect on HT-29 cell line proliferation at 24 hours (HT-29 cell line; 10 μM peptide, 24 hours of culture): a major effect on HT-29 cell line proliferation, but exclusively at 24 hours of culture
effect on HT-29 proliferation after 48 hours (HT-29 cell line; 10 μM peptide, 48 hours): the proliferation returns to its basal level

Human CuZn-SOD: recombinant human cytosolic CuZn-SOD expressed in bacteria
activity of biosynthetic SOD expressed in the applicant's bacterial system [2]: functional

B1: yeast CuZn-SODs: yeast CuZn superoxide dismutase (protein, UniProt P00445 2-154, looked up)
Superoxide dismutase [Cu-Zn]: VQAVAVLKGDAGVSGVVKFEQASESEPTTVSYEIAGNSPNAERGFHIHEFGDATNGCVSAGPHFNPFKKTHGAPTDEVRHVGDMGNVKTDENGVAKGSFKDSLIKLIGPTSVVGRSVVIHAGQDDLGKGDTEESLKTGNAGPRPACGVIGLTN
anti-inflammatory activity in rats [1]: pro-inflammatory activity

B2: recombinant SOD: recombinant Cucumis melo CuZn superoxide dismutase (pseudo-cytosolic form) expressed in E. coli, His-tag cleaved, refolded (protein)
chain: MVKAVAVLKGTSDVEGVVTLTQEDDGPTSVNVRITGLTPGPHGFHLHEFGDTTNGCISTGAHFNPNKLTHGAPEDEIRHAGDLGNIIANADGVAEATIVDNQIPLSGPNSVVGRAFVVHELADDLGKGGHELSLTTGNAGGRLACGVVGLTPV
modifications: Cucumis melo
toxic effect on HT-29 proliferation curves (HT-29 cell line): neither SOD nor Gli-SOD exert any toxic effect
dose that does not modify growth of the HT-29 cell line (HT-29 cell line; 48 hours): 10 units
inhibition of basal apoptosis (HT-29 cells [3]): 12.2%
rate of basal apoptosis (annexin V positive cells) (HT-29 cells [3]): 18%
inhibition of orexin-induced apoptosis (HT-29 cells [4]): 26%
rate of orexin-induced apoptosis (HT-29 cells [4]): 34.4%
prevention of X/XO-induced apoptotic pathway (HT-29 cells [5]): 71%
presence of SOD in the vicinity of the cells (FITC fluorescence) (HT-29 cells [6]): clearly visible

B3: human Mn-SOD: human manganese superoxide dismutase (protein, UniProt P04179 25-222, looked up)
Superoxide dismutase [Mn], …: KHSLPDLPYDYGALEPHINAQIMQLHHSKHHAAYVNNLNVTEEKYQEALAKGDVTAQIALQPALKFNGGGHINHSIFWTNLSPNGGGEPKGELLEAIKRDFGSFDKFKEKLTAASVGVQGSGWGWLGFNKERGHLQIAACPNQDPLQGTTGLIPLLGIDVWEHAYYLQYKNVRPDYLKAIWNVINWENVTERYMACKK
anti-inflammatory activity in rats [1]: no anti-inflammatory activity

B4: biosynthetic tomato cytosolic SODs: recombinant Lycopersicon esculentum cytosolic CuZn-SOD expressed in bacteria (protein, listed as Lycopersicon esculentum)
chain: MVKAVAVLNSSEGVSGTILFTQDGDAPTTVNGNISGLKPGLHGFHVHALGDTTNGCMSTGPHYNPAGKEHGAPEDEVRHAGDLGNITVGEDGTASFTITDKQIPLTGPQSIIGRAVVVHADPDDLGKGGHELSKSTGNAGGRIACGIIGLQG
activity of biosynthetic SOD expressed in the applicant's bacterial system [2]: a lot less active

B5: recombinant Gli-SOD: recombinant melon CuZn SOD fused at its N-terminal part to A-gliadin peptide QQPYPQPQPF (peptide 982) (protein)
chain: QQPYPQPQPFMVKAVAVLKGTSDVEGVVTLTQEDDGPTSVNVRITGLTPGPHGFHLHEFGDTTNGCISTGAHFNPNKLTHGAPEDEIRHAGDLGNIIANADGVAEATIVDNQIPLSGPNSVVGRAFVVHELADDLGKGGHELSLTTGNAGGRLACGVVGLTPV
modifications: Cucumis melo
"peptide effect" on HT-29 proliferation at 24 hours (HT-29 cell line; 10 units SOD coupled to or associated with 10 μM peptide 982): no “peptide effect” at 24 hours of culture
toxic effect on HT-29 proliferation curves (HT-29 cell line): neither SOD nor Gli-SOD exert any toxic effect
dose that does not modify growth of the HT-29 cell line (HT-29 cell line; 48 hours): 5 units
inhibition of basal apoptosis (HT-29 cells [3]): 18.1%
rate of basal apoptosis (annexin V positive cells) (HT-29 cells [3]): 16.8%
inhibition of orexin-induced apoptosis (HT-29 cells [4]): 54.7%
rate of orexin-induced apoptosis (HT-29 cells [4]): 28.7%
prevention of X/XO-induced apoptotic pathway (HT-29 cells [5]): 86%
presence of SOD in the vicinity of the cells (FITC fluorescence) (HT-29 cells [6]): apparently to a greater extent
